This note sets out measurements from PMC7876108, “Cryo-EM structures of engineered active bc1-cbb3 type CIII2CIV super-complexes and electronic communication between the complexes” (Nature Communications, 2021).

First the molecules themselves.
B4: cytochrome b, subunit of CIII2 (natural protein, Rhodobacter capsulatus)
chain: MSGIPHDHYEPKTGIEKWLHDRLPIVGLVYDTIMIPTPKNLNWWWIWGIVLAFTLVLQIVTGIVLAMHYTPHVDLAFASVEHIMRDVNGGWAMRYIHANGASLFFLAVYIHIFRGLYYGSYKAPREITWIVGMVIYLLMMGTAFMGYVLPWGQMSFWGATVITGLFGAIPGIGPSIQAWLLGGPAVDNATLNRFFSLHYLLPFVIAALVAIHIWAFHTTGNNNPTGVEVRRTSKADAEKDTLPFWPYFVIKDLFALALVLLGFFAVVAYMPNYLGHPDNYVQANPLSTPAHIVPEWYFLPFYAILRAFAADVWVVILVDGLTFGIVDAKFFGVIAMFGAIAVMALAPWLDTSKVRSGAYRPKFRMWFWFLVLDFVVLTWVGAMPTEYPYDWISLIASTYWFAYFLVILPLLGATEKPEPIPASIEEDFNSHYGNPAE
notes: cytochrome b (petB), Rhodobacter capsulatus; also called cyt b; PetB

Series [1] has as its target T1, cytochrome cy, full length (membrane-anchored) (Rhodobacter capsulatus, UniProt Q05389 1-199).
T1 construct: cytochrome cy (cycY), Rhodobacter capsulatus: 30-residue TMH, 69-residue linker, 100-residue cyt c domain; Only its TMH is resolved in map SC-2A; also called cyt cy; intact cyt cy; source: purified
T1 sequence (looked up): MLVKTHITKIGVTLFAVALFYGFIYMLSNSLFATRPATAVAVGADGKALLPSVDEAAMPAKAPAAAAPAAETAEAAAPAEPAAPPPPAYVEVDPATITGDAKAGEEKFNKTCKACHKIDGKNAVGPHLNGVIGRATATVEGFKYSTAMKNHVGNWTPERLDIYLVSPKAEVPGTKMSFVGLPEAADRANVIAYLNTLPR
Put plainly: cross-linking; XL-MS: cyt cy with CIII2CIV, DMTMM. Particulars: both partners purified.

In series [2] the target is B4. The experiment in a line: cryo-EM structure; native CIII2 particles in the bipartite SC + cy samples; maps CIII2 (3.3 A), CIII2 c-c (3.8 A), b-c (4.2 A), b-b (3.5 A). Particulars: both partners purified.
Series [3] concerns the target T2, cytochrome c1, subunit of bc1-type CIII2 (Rhodobacter capsulatus, UniProt D5ANZ4 22-279).
T2 construct: cytochrome c1 (petC), Rhodobacter capsulatus; Stood within the CIII2 complex (FeS protein, cyt b, cyt c1; a dimer) in the cross-linking and in the cryo-EM maps of native CIII2; also called cyt c1; PetC; source: native CIII2 particles in the bipartite SC + cy sample
T2 sequence (looked up): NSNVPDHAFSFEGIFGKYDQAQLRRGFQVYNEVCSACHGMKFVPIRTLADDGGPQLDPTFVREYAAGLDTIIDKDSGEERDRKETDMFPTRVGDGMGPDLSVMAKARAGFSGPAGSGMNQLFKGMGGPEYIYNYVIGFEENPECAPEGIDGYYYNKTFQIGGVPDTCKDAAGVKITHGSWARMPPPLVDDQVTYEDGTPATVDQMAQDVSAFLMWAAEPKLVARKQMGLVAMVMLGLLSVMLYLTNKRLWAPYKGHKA
The description is as above. To be noted: both partners purified.

The target of series [4] is B4. Put plainly: cryo-EM structure; purified bipartite SC mixed with 5-fold molar excess of purified cyt cy; map SC-2A, 5.2 A; models fitted as rigid bodies. Particulars: both partners purified.
The target in series [5] is T2, cytochrome c1, subunit of bc1-type CIII2. The experiment in a line: cross-linking; XL-MS: 300 ug purified bc1-type CIII2 with 2-fold molar excess of cyt c2, 20 mM DMTMM, 1 h, room temperature, low salt (20 mM Na-phosphate pH 7.4, 1 mM NaCl, 0.01% DDM). Particulars: both partners purified.
Series [6] addresses T3, CcoP, subunit of cbb3-type CIV (Rhodobacter capsulatus, UniProt D5ARP7 1-297).
T3 construct: CcoP subunit of the cbb3-type CIV, Rhodobacter capsulatus; Stood within purified CIV in the cross-linking
T3 sequence (looked up): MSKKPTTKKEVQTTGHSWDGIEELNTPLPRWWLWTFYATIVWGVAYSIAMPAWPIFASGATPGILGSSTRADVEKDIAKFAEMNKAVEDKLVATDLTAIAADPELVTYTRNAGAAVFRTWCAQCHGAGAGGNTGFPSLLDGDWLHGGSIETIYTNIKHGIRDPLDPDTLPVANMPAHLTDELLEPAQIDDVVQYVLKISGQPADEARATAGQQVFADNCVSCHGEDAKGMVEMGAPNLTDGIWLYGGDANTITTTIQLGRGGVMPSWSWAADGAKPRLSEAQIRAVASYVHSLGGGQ
Put plainly: cross-linking; XL-MS: 300 ug purified cbb3-type CIV with 2-fold molar excess of cyt c2, 20 mM DMTMM, 1 h, room temperature, low salt (20 mM Na-phosphate pH 7.4, 1 mM NaCl, 0.01% DDM). Particulars: both partners purified.

Series [7] deals with the molecule itself. The experiment in a line: cryo-EM structure; purified bipartite SC mixed with 5-fold molar excess of purified cyt cy; map SC-2A, 5.2 A; models fitted as rigid bodies.

B1: Rieske FeS protein, subunit of CIII2 (natural protein, Rhodobacter capsulatus)
chain: MSHAEDNAGTRRDFLYHATAATGVVVTGAAVWPLINQMNASADVKAMASIFVDVSAVEVGTQLTVKWRGKPVFIRRRDEKDIELARSVPLGALRDTSAENANKPGAEATDENRTLPAFDGTNTGEWLVMLGVCTHLGCVPMGDKSGDFGGWFCPCHGSHYDSAGRIRKGPAPRNLDIPVAAFVDETTIKLG
notes: Rieske FeS protein (petA), Rhodobacter capsulatus; TMH residues 11-49, external domain (ED) residues 50-191 in the model; also called PetA; FeS-ED (its external domain); source: R. capsulatus pYO76/YO12, subunit of the purified bipartite SC and of the native CIII2 particles in that sample
As to B1, the binding result in series [1], in series [2] and in series [3] was “binds” each time.

B2: cyt c1-CcoP fusion subunit of the bipartite SC (His8) (other, Rhodobacter capsulatus, UniProt D5ANZ4 22-279, looked up)
chain: NSNVPDHAFSFEGIFGKYDQAQLRRGFQVYNEVCSACHGMKFVPIRTLADDGGPQLDPTFVREYAAGLDTIIDKDSGEERDRKETDMFPTRVGDGMGPDLSVMAKARAGFSGPAGSGMNQLFKGMGGPEYIYNYVIGFEENPECAPEGIDGYYYNKTFQIGGVPDTCKDAAGVKITHGSWARMPPPLVDDQVTYEDGTPATVDQMAQDVSAFLMWAAEPKLVARKQMGLVAMVMLGLLSVMLYLTNKRLWAPYKGHKASKKPTTKKEVQTTGHSWDGIEELNTPLPRWWLWTFYATIVWGVAYSIAMPAWPIFASGATPGILGSSTRADVEKDIAKFAEMNKAVEDKLVATDLTAIAADPELVTYTRNAGAAVFRTWCAQCHGAGAGGNTGFPSLLDGDWLHGGSIETIYTNIKHGIRDPLDPDTLPVANMPAHLTDELLEPAQIDDVVQYVLKISGQPADEARATAGQQVFADNCVSCHGEDAKGMVEMGAPNLTDGIWLYGGDANTITTTIQLGRGGVMPSWSWAADGAKPRLSEAQIRAVASYVHSLGGGQ
notes: cytochrome c1 (petC), Rhodobacter capsulatus; stop codon eliminated, no linker to CcoP; CcoP subunit of the cbb3-type CIV, Rhodobacter capsulatus; start codon eliminated; About 65 kDa; Stood within the bipartite SC; also called petC::ccoP-His8; source: R. capsulatus pYO76/YO12, subunit of the purified bipartite SC; not shown: His8, C-terminal, kept
On to B2, for which the binding result in series [1] and in series [4] was “binds” throughout.

B3: cytochrome c2 (natural protein, Rhodobacter capsulatus, UniProt P00094 22-137, looked up)
chain: GDAAKGEKEFNKCKTCHSIIAPDGTEIVKGAKTGPNLYGVVGRTAGTYPEFKYKDSIVALGASGFAWTEEDIATYVKDPGAFLKEKLDDKKAKTGMAFKLAKGGEDVAAYLASVVK
notes: soluble cytochrome c2, Rhodobacter capsulatus; also called cyt c2; source: purified R. capsulatus cyt c2
Regarding B3, the binding result in series [5] and in series [6] was “binds” throughout.

Consider B4, for which the binding result in series [7] was “binds”.
